Target: the molecule itself
Assay: native gel or EMSA; purified hCLE-CBD, dialyzed, non-denaturing gel, Western blot against hCLE

B1: hCLE-TAP tagged protein, purified as hCLE-CBD (natural protein, human, UniProt Q9Y224 1-244, looked up)
chain: MFRRKLTALDYHNPAGFNCKDETEFRNFIVWLEDQKIRHYKIEDRGNLRNIHSSDWPKFFEKYLRDVNCPFKIQDRQEAIDWLLGLAVRLEYGDNAEKYKDLVPDNSKTADNATKNAEPLINLDVNNPDFKAGVMALANLLQIQRHDDYLVMLKAIRILVQERLTQDAVAKANQTKEGLPVALDKHILGFDTGDAVLNEAAQILRLLHIEELRELQTKINEAIVAVQAIIADPKTDHRLGKVGR
notes: hCLE/C14orf166, human; In the cells the protein carries the whole TAP tag (hCLE-TAP); after the TEV step of the purification it is hCLE-CBD; also called hCLE/C14orf166; protein C14orf166 (CLE); source: HEK293T, transfected with pChCLE-TAP; TAP purified (IgG-Sepharose, Calmodulin-Agarose) from total, nuclear or cytosolic extracts
stoichiometry N: 2
